Test: yeast display, Sf9 membrane polyspecificity reagent, FACS + sequencing; frameworks hold sequencing errors
In short: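 Galactose induction of a Saccharomyces cerevisiae BJ5465 synthetic nanobody display library ran 36–48 hours. The cells were then stained for 1 hour at 4 °C with 10% biotinylated, detergent-solubilized Sf9 membrane reagent, pulled down on streptavidin microbeads and FACS-sorted into low and high (top ~1%) gates on expression and reagent-binding fluorescence. Labels for polyreactivity follow the gate of origin.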

Row | Sequence | polyreactivity (PSR sort gate)
1 | QFQLEESVGGLVQAGGSLRLSCAASGFTFKSYAMGWYRQATVNVREFVARITYSGGGTYYADSVKGRFTISRDNAKNTVYLLMNSLKPEDTAVYYCARPFNRYLGLTRNGYTSDYWGQGTQVTVSS | high polyreactivity
2 | QFQLGESGGGLVQAGGSLRLSCAACGSTFYLYAMGWYRQAPGKDRELVAAISKSCGSTYYADSVKGRFTISRDNAKNTVYLQMNSLKPEVTAVYYCATRWIKGRKMDYWGQGTQVTVSS | high polyreactivity
3 | QFQLGESGGGLVQAGGSLRLSCAASGYIFKKNAMGWYRQAPGYERELVAVISARGGRTYYADSVKGRFTISRDKGKNTVYLQMNSLKPEDTAVYYCAAVSLGITYDYWGQGTQVTVSS | low polyreactivity
4 | QFQLVESCGGLVQAGGSLRLSCAASGSIFYYYVMGWYRQAPGKEREFVAAISWRGDSTYYADSVKGRFTISRDNAKNTVYLQMNSLKPEDTAVYYCNADYPWSVVGYDYLGQGTQVTVSS | low polyreactivity
5 | QFQLVESGGGIVQAGGSLRLSCAASGRTIYQYAMGWYRESPANERELVAAISRSGTSTYYADSVKGRFTISRDNAKNTVYLQMNSLKPEDTAVYFCAARYVSKYNYPSPEMYYWGQGTKVTVSS | high polyreactivity
6 | QFQLVESGGGLVHAGGSLRLICAASGRTFVYNAMGWYRQAPGKERDLVAAISFGGGNTYYADSVKGRFTISRDNAKNTVYLQMNCLKPEDTAVYYCAKAYIGYWGASCYYAYDYWGQGTQVTVSS | low polyreactivity
7 | QFQLVESGGGLVQAGGRLRLSCAASGYTFYSYAMGWSRQAPGKERELVASITRRVGGTYYADSVKGRFTISRDNAKKTVYLQMNSLKPEDTAVYYCAAGYYHKKSSTDIEKYWGQGTQLTVSS | low polyreactivity
8 | QFQLVESGGGLVQAGGSLRLICDASGSIFYPYTIGWYRQAPWKERQLVAAITWDGGNTYYADSVKGRFTISRDNAKNTVYLQMNSLKREDTAVYYCAAVTSGWGTYRMYYWGQGTQETVSS | high polyreactivity
9 | QFQLVESGGGLVQAGGSLRLSCAASGCIFLYYAMGSYRPATGNERELVASISSGGSTNYADSVKGRFTISRDNAKNTVYLQMNSLKPEDTAVYYCAARPYGGGRRSIYYYWGQGTQVTESS | high polyreactivity
10 | QFQLVESGGGLVQAGGSLRLSCAASGFTFWLYAMGWYRQAPGKEREFVAAISTSGGSTYADSVKGRFTISRDNAKNTVYLHMNSLKPEDTAVYYCNAGYLLYYDYHLFYWGQGTQVTVSS | low polyreactivity
11 | QFQLVESGGGLVQAGGSLRLSCAASGGTFGWNAMGLYRQAPGKERELVAAITSSGGDTYYADSVKGRFTISRDNAKNTVYLQMNSLKPEDTAVYYCAAEDGRQYGYWGQGTQVTVSS | low polyreactivity
12 | QFQLVESGGGLVQAGGSLRLSCAASGGTFYSNAMGCYRQAPGKERDLVATITGGGRTYYADSVKGRFTISRDNAKNTVYLQMNSLKPEDNAVYYCAVRGYHQYKYGYWGQGTQVNVSS | high polyreactivity
13 | QFQLVESGGGLVQAGGSLRLSCAASGITFVYYAMGGYRQAPGKERELVAAISRGGTSTYYADSVKGRFTISRDNAKNTVYLHMNSLKPEDTAVYYCNARYPKSYRTNYYYWGQGTQVTVSS | high polyreactivity
14 | QFQLVESGGGLVQAGGSLRLSCAASGLIFAYNAKGWSRQATGKERELVAAITGGGDGTYYADSVKGRFTISRDNAKYTVYLQMNSLKPEDTAVYYCAADYKYVGSEYGYWGQGTQVTVSS | low polyreactivity
15 | QFQLVESGGGLVQAGGSLRLSCAASGLTFVAYAMGWYRQAPGKEMELVAAITRRGGSTYYADSVKGRFTISRDNEKNPVSLQMNSLKPEDTAVYYCAAEGWYSRNPGFDYWGQGTQVTVSS | high polyreactivity
16 | QFQLVESGGGLVQAGGSLRLSCAASGRIFCRYAMGWYRQAPGKETELVPVISARGARTYYEDSVKGRFTISRDNAKYTVYLQMNSLKPEDTAVYYCNKVGVLSGYYYPHASGDYWGQGTQVTVSS | high polyreactivity
17 | QFQLVESGGGLVQAGGSLRLSCAASGRIFDFYAMGWYREAPGKERELVAAISWRGGSTYYAHSVKGRFTISRDNAKNTVYLQMNSLKPEDTAVYYCATRFGPRYYWGQGTQVTVSS | low polyreactivity
18 | QFQLVESGGGLVQAGGSLRLSCAASGRIFDTYVMRWYRQAPGKERDLVAAISGSGGSTYYAYSVKGRFTISRDNAKNTVYLQMNSLKPEDTEVYYCAAARRYYAYRYDYWGQGTQVTVSS | high polyreactivity
19 | QFQLVESGGGLVQAGGSLRLSCAASGRIFGDNAMGWYRQAPGKERELVADIDSGGRTNYADSVKGRFTISRDNAKNTVYLQMNSLKPEDTAVYYCARDDIAYLVEYDYWGQGTQVTVSS | low polyreactivity
20 | QFQLVESGGGLVQAGGSLRLSCAASGRIFIIYAMGWYRQAPGKERELVAAINRGATTNFADSVKGRFTISRDNAKNTVYLQMNSLKPEDTAVYYCAACSGPSLSRFLRYANDYWGQGTQVTLSS | high polyreactivity
21 | QFQLVESGGGLVQAGGSLRLSCAASGRIFLSYAMGWYRQAPGKERELVAAITLSGGSTYYADSVKGRFTISRDNAKNTVSLQMNSLKPEVTGVYYCAADAWFSLRYAPRSYAYGYWGQGTQVTVSS | low polyreactivity
22 | QFQLVESGGGLVQAGGSLRLSCAASGRIFPLYVMGWYRQAPGKERELVAAMSRSGSRTYYADSVKGRFTISRDNAKNTVYFQMNSLKPEDTAVYYCAAVPDGTTRYDGDYWGQGTQVTVSS | high polyreactivity

Row | Sequence | polyreactivity (PSR sort gate)
23 | QFQLVESGGGLVQAGGSLRLSCAASGRIFYGYAMVWYRQAPGKERDLVAAISWRGGRTYYADSVKGRFTISRDNAKNTVYLQMNSLKPEDTAVYYCNKVFPPQGQLRNMYYWGQGTQVTVSS | high polyreactivity
24 | QFQLVESGGGLVQAGGSLRLSCAASGRIFYSYAIGWYRQAPGKERELVAAINWSSVRTYYADSVKGRFTISRDNAKNTVYLQMNSLKPEDTAVYYWNAYSTEWGRYDYWGQGTQVTVSS | high polyreactivity
25 | QFQLVESGGGLVQAGGSLRLSCAASGRIFYYYAMGWYRQAPGKERELVAAITRGGSTYADSVKGRFTISRDNAKNTVYLQMNSLKPEDTAVYYCAATYWYWDFRWMDYWGQGTQVTVSS | high polyreactivity
26 | QFQLVESGGGLVQAGGSLRLSCAASGRISYAYAMGWYRQAPGKEREFVAAISGSGGSTYYADSVKGRFTISRDNAKKTVYLQMNSLKPEDTAVYYCDAGSGEYYGGKRYYWGQGTQVTVSS | low polyreactivity
27 | QFQLVESGGGLVQAGGSLRLSCAASGRIYGLYAKGWYRQAPGKERELVAAISSTGGRTFYADSVKGRFTISRDNAKNTVYFQMNSLKPDDTAVYYCAAYRYSRYRQRYNYCGQGTQVTVSS | high polyreactivity
28 | QFQLVESGGGLVQAGGSLRLSCAASGRTFGGYAMGWYRQAAGKVREFVAALTYRGASTYYSDSVKGRFTISRDNAKNTVYFQMNSLKPEDTAVYYCAAEGSIKYFVGYTWGYNYWGQGTQVTVSS | low polyreactivity
29 | QFQLVESGGGLVQAGGSLRLSCAASGRTFGRYAMGRDRPAPGKERELVAAINSGGSTYYADSVKGRFTISRDNAKNTVYLQMMSLKPEDTAVYYCDTQWTWKLGYWGQGTQVTVSS | high polyreactivity
30 | QFQLVESGGGLVQAGGSLRLSCAASGSIFLSNAMGWYRQAPGKERELVADIDWTGGDTYYADSVKGRFRISRDNAKNTVYLQMNSLKREDTAVYYCAADYGYRNLRTEYGYWGQGTQVTVSS | low polyreactivity
31 | QFQLVESGGGLVQAGGSLRLSCAASGSIFRAYAMGRYRQATGKERELVADISRSGGSTYYADSVKGRFTISRDNAKNTVYLQMNSLTQEVTAVYYCAAVFYLYSNLYGEYDYWGQGTQVTVSS | low polyreactivity
32 | QFQLVESGGGLVQAGGSLRLSCAASGSIFRENAMGWYRQAPGKEMELVAAIYVRDGDTFYADSVKGRFTISRDNAKNTVYLQMNSLKPEDTAVYYCAADQQKWYTGYDYWGQCTQVTVSS | low polyreactivity
33 | QFQLVESGGGLVQAGGSLRLSCAASGSIFSINAMGWYRQAPGKERELVAVISWIGGNTYYADSVKGRFTISRDNAKNTVYLQMNSLKPEDTAVYYCAVATGPVSYRRYYWGQGTQVTVSS | high polyreactivity
34 | QFQLVESGGGLVQAGGSLRLSCAASGSISDIYAMGWYRQAPGKERELVASISSGGITNYADSVKGRFTISRDNAKNTVYLQMNSLKPEDTAVYYCAKDRYHISFFYQMEYWGQGTQVTVSS | low polyreactivity
35 | QFQLVESGGGLVQAGGSLRLSCAASGSSFTVYAMGWYRQAPGKETELVAAISYVGGSTYYAASVKGRFTISRDNAKNTVYLQMNSLKPEDTAVYYCAADPYYSYGYYHAHGRDVGYWGQGTQVTVSS | low polyreactivity
36 | QFQLVESGGGLVQAGGSLRLSCAASGSTFDPYAMGWDTQAPGKEREFLADIDSSVGSTFYADSVKGRFTISRDNPKNTVYLQMNSLKPEDTAVYYCAAASRVAKGRWRLYDYWGQGTQVTVSS | high polyreactivity
37 | QFQLVESGGGLVQAGGSLRLSCAASGSTFFVYDMGWYRQATGKEGELVAAISISDGGTYYADSVKGRFTISRDNAKNTVYLQMKSLKPEDTAVYYCAADYSERYFPGYDYWGQGTLVTVSS | low polyreactivity
38 | QFQLVESGGGLVQAGGSLRLSCAASGSTFGSYAMGWYRQAPAKESELVAAITASGGSTNYADSVKGRFTISRDNAKNTVYLQMNSLKPEDTAVYYCAADTTYSPLSIEYDYWGQGTQVTVSS | low polyreactivity
39 | QFQLVESGGGLVQAGGSLRLSCAASGSTFVPNTMGWYRQAPGIERELVAAITYSGGSTYYADSVKGRFTISRDNAKNTVYLQMHSLKPEDTAVYYCAAEGTTWYYDMDYWGQGTQVTVSS | low polyreactivity
40 | QFQLVESGGGLVQAGGSLRLSCAASGSTIPRNAMGWYRQAPGKERELVAVITGSGGSTYYADSVKGRFTISRDNAKNTVYLQMNSLKPEDTAVYYCAAKYRFYGFDYWGQGTQLTVSS | high polyreactivity
41 | QFQLVESGGGLVQAGGSLRLSCAASGSTLAPYVMGWYRQAPGKDRELVAVISTRTGRPYYADSVKGRFTISRDNAKNTVYLQMNSLKPEDTGVYYCAARKKTTYRDWGRHDYWGQGTQVTVSS | high polyreactivity
42 | QFQLVESGGGLVQAGGSLRLSCAASGYTFGNYAMGWYRPAPGNVRVLVAGISWSGGSTYYADSVKGRFTISRDNAKNTVYLQMNSLKPEDTAVYYCATRVQGYHNGWYAYLGQGTQVTVSS | high polyreactivity
43 | QFQLVESGGGLVQAGGSLRLSCAASGYTFGQYDMGWYRQAPGKERELVAAISTGGVSTYYADSVKGRFTISRDNAKNTVYLQMNSLKPEDTAVYYCATTPYVRYDYWGQGTQVTVSS | low polyreactivity

Reference: the nanobody polyreactivity screen of Harvey et al. (2022)
